In the test the target is T1, SF3B1-3 (pET15b-SF3B1-3, amino acids 955–1304) (UniProt O75533 955-1304).
T1 construct: SF3B1, amino acids 955–1304, HEAT 11–22 domain; methods are in the supplement; also called HEAT 11–22 domain of SF3B1; source: recombinant protein from pET15b-SF3B1-3
Briefly: pull-down; cell-free system; recombinant KHSRP-KH4Q and SF3B1-3; inputs and pulled-down proteins detected by Coomassie staining and Western blotting. Particulars: both partners purified.

T1 sequence (O75533 955-1304): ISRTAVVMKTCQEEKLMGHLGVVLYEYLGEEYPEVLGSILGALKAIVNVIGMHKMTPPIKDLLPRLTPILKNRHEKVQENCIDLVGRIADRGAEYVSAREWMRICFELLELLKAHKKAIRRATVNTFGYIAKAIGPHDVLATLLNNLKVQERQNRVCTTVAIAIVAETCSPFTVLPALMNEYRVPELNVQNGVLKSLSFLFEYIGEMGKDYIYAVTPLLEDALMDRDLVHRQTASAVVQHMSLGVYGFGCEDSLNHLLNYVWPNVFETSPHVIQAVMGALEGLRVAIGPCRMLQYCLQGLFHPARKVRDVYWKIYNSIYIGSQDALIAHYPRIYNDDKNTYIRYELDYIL

B1: KHSRP-KH4Q (pET15b-KHSRP-KH4Q, amino acids 435–710) (domain or fragment, UniProt Q92945 435-710, looked up)
chain: KCGLVIGRGGENVKAINQQTGAFVEISRQLPPNGDPNFKLFIIRGSPQQIDHAKQLIEEKIEGPLCPVGPGPGGPGPAGPMGPFNPGPFNQGPPGAPPHAGGPPPHQYPPQGWGNTYPQWQPPAPHDPSKAAAAAADPNAAWAAYYSHYYQQPPGPVPGPAPAPAAPPAQGEPPQPPPTGQSDYTKAWEEYYKKIGQQPQQPGAPPQQDYTKAWEEYYKKQAQVATGGGPGAPPGSQPDYSAAWAEYYRQQAAYYGQTPGPGGPQPPPTQQGQQQA
notes: methods are in the supplement; also called KH4–Q-rich domain of KHSRP; source: recombinant protein from pET15b-KHSRP-KH4Q
As to B1, the binding result is recorded as “binds”.

Values taken from article PMC11347664, “KHSRP ameliorates acute liver failure by regulating pre-mRNA splicing through its interaction with SF3B1” (Cell Death & Disease, 2024).
